One may read the stoichiometry N as the number of molecules, sites or subunits per partner or assembly.

The record followed here is paper PMC3834835, “Crystal structure of RuvC resolvase in complex with Holliday junction substrate” (Nucleic Acids Research, 2013).

For data set [1], the target named is Tt-RuvC as crystallised in complex with a synthetic Holliday junction (T. thermophilus) (UniProt Q5SJC4). Put plainly: crystal structure; Tt-RuvC with synthetic Holliday junction (oligonucleotides J221 and J222), crystals from 0.3-0.5 M ammonium phosphate; molecular replacement, 3.75 Å; asymmetric unit holds a RuvC dimer and one HJ.
Data set [2] concerns the molecule itself. Put plainly: crystal structure; apo Tt-RuvC, crystals from 0.1 M citric acid (pH 3.5) and 1.5 M NaCl; SAD, 1.35 Å; asymmetric unit holds a RuvC dimer.
Another data set concerns the target T1, Tt-RuvC E70Q M108C (Thermus thermophilus, UniProt Q5SJC4 1-166, E70Q;M108C).
T1 sequence: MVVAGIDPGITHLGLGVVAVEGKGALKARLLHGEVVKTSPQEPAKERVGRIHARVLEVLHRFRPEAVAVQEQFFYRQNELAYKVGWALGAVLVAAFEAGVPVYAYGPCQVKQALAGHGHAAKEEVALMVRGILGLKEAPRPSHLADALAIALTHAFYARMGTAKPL
Put plainly: site-specific thiol cross-linking; 5 mM Mg2+, 100 mM KCl; Cross-linking: 100 mM NaCl, 10 mM HEPES pH 7.0, 0.5 mM DTT, 15% glycerol, 5 mM MgCl2 (+100 mM KCl for backbone thiols), protein:DNA 1:1, 37 C 2.5 h then 25 C overnight. As to conditions: protein: recombinant; tags: N-terminal His-tag; chain copies: 2; Holliday junction of 4 strands, immobile.

For data set [3], the target named is T2, Tt-RuvC E70Q T11C (Thermus thermophilus, UniProt Q5SJC4 1-166, E70Q;T11C).
T2 sequence: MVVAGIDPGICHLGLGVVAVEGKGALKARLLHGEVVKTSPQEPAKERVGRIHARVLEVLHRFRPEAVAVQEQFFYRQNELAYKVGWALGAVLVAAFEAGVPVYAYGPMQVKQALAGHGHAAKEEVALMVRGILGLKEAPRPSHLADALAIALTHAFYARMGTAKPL
Put plainly: site-specific thiol cross-linking; 5 mM Mg2+, 100 mM KCl; most efficient; Cross-linking: 100 mM NaCl, 10 mM HEPES pH 7.0, 0.5 mM DTT, 15% glycerol, 5 mM MgCl2 (+100 mM KCl for backbone thiols), protein:DNA 1:1, 37 C 2.5 h then 25 C overnight. To be noted: protein: recombinant; tags: N-terminal His-tag; chain copies: 2; Holliday junction of 4 strands, immobile.

For the next data set, the target named is T3, Tt-RuvC E70Q R140C (Thermus thermophilus, UniProt Q5SJC4 1-166, E70Q;R140C).
T3 sequence: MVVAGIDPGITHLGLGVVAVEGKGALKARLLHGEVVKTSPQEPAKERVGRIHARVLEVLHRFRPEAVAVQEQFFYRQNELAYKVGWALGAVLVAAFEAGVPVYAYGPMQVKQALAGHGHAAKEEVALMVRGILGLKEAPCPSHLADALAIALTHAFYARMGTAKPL
Put plainly: site-specific thiol cross-linking; 5 mM Mg2+, 100 mM KCl; Cross-linking: 100 mM NaCl, 10 mM HEPES pH 7.0, 0.5 mM DTT, 15% glycerol, 5 mM MgCl2 (+100 mM KCl for backbone thiols), protein:DNA 1:1, 37 C 2.5 h then 25 C overnight. To be noted: protein: recombinant; tags: N-terminal His-tag; chain copies: 2; Holliday junction of 4 strands, immobile.

The target of data set [4] is T4, Tt-RuvC E70Q P40C (Thermus thermophilus, UniProt Q5SJC4 1-166, E70Q;P40C).
T4 sequence: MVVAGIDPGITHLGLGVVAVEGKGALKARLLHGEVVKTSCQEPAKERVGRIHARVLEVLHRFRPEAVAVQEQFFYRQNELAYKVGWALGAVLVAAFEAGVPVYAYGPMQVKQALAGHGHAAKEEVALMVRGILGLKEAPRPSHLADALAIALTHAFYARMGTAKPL
Put plainly: site-specific thiol cross-linking; 5 mM Mg2+, 100 mM KCl; most efficient; Cross-linking: 100 mM NaCl, 10 mM HEPES pH 7.0, 0.5 mM DTT, 15% glycerol, 5 mM MgCl2 (+100 mM KCl for backbone thiols), protein:DNA 1:1, 37 C 2.5 h then 25 C overnight. To be noted: protein: recombinant; tags: N-terminal His-tag; chain copies: 2; Holliday junction of 4 strands, immobile.

Data set [5] deals with T2, Tt-RuvC E70Q T11C. Put plainly: site-specific thiol cross-linking; 5 mM Mg2+, 100 mM KCl; single modification; Cross-linking: 100 mM NaCl, 10 mM HEPES pH 7.0, 0.5 mM DTT, 15% glycerol, 5 mM MgCl2 (+100 mM KCl for backbone thiols), protein:DNA 1:1, 37 C 2.5 h then 25 C overnight. As to conditions: protein: recombinant; tags: N-terminal His-tag; chain copies: 2; Holliday junction of 4 strands.

Data set [6] deals with T4, Tt-RuvC E70Q P40C. The data set is described as above. To be noted: protein: recombinant; tags: N-terminal His-tag; chain copies: 2; Holliday junction of 4 strands.
The next data set deals with T5, Tt-RuvC E70Q (Thermus thermophilus, UniProt Q5SJC4 1-166, E70Q).
T5 sequence: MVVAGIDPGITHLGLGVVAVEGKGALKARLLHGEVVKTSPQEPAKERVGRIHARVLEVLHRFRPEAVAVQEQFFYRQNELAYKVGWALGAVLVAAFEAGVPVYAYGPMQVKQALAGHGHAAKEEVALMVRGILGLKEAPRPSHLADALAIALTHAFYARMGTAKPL
Put plainly: X-ray crystallography (3.75 A); 0.3-0.5 M ammonium phosphate; Cross-linking: 100 mM NaCl, 10 mM HEPES pH 7.0, 0.5 mM DTT, 15% glycerol, 5 mM MgCl2 (+100 mM KCl for backbone thiols), protein:DNA 1:1, 37 C 2.5 h then 25 C overnight. As to conditions: protein: recombinant; tags: none (N-terminal His-tag removed with PreScission protease); chain copies: 2; Holliday junction of 2 strands, TTT loops on two arms.

For the next data set, the target named is T6, Tt-RuvC E70Q L80C (Thermus thermophilus, UniProt Q5SJC4 1-166, E70Q;L80C).
T6 sequence: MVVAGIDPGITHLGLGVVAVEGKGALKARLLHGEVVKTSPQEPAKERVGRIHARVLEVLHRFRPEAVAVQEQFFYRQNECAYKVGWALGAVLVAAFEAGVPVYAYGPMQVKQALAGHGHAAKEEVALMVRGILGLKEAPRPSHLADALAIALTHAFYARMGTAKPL
Put plainly: site-specific thiol cross-linking; 5 mM Mg2+; Cross-linking: 100 mM NaCl, 10 mM HEPES pH 7.0, 0.5 mM DTT, 15% glycerol, 5 mM MgCl2 (+100 mM KCl for backbone thiols), protein:DNA 1:1, 37 C 2.5 h then 25 C overnight. To be noted: protein: recombinant, tags: N-terminal His-tag, chain copies: 2, Holliday junction of 2 strands, TTT loops.

Another data set has as its target T7, Tt-RuvC E70Q Q77C (Thermus thermophilus, UniProt Q5SJC4 1-166, E70Q;Q77C).
T7 sequence: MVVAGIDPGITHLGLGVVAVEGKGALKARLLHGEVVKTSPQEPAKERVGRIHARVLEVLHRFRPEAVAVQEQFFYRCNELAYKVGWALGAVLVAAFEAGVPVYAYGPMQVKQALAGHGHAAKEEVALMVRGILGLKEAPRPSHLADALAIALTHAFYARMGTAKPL
Put plainly: site-specific thiol cross-linking; 5 mM Mg2+; high efficiency; Cross-linking: 100 mM NaCl, 10 mM HEPES pH 7.0, 0.5 mM DTT, 15% glycerol, 5 mM MgCl2 (+100 mM KCl for backbone thiols), protein:DNA 1:1, 37 C 2.5 h then 25 C overnight. As to conditions: protein: recombinant; tags: N-terminal His-tag; chain copies: 2; Holliday junction of 2 strands, TTT loops, 2 bp homology core.

Another data set concerns the target T8, Tt-RuvC E70Q R76C (Thermus thermophilus, UniProt Q5SJC4 1-166, E70Q;R76C).
T8 sequence: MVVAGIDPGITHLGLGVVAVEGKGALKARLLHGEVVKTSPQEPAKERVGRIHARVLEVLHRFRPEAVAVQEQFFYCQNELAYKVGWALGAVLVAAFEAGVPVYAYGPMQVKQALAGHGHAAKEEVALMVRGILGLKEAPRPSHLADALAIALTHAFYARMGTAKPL
The description is as above. To be noted: protein: recombinant; tags: N-terminal His-tag; chain copies: 2; Holliday junction of 2 strands, TTT loops, 2 bp homology core.

As to “Tt-RuvC as crystallised in complex with a synthetic Holliday junction (from UniProt Q5SJC4 1-166) (enzyme)”, the stoichiometry N in data set [1] came to 2.

B1: RuvC protein from T. thermophilus (Tt-RuvC), unliganded (apo) crystal form (enzyme)
chain: MVVAGIDPGITHLGLGVVAVEGKGALKARLLHGEVVKTSPQEPAKERVGRIHARVLEVLHRFRPEAVAVEEQFFYRQNELAYKVGWALGAVLVAAFEAGVPVYAYGPMQVKQALAGHGHAAKEEVALMVRGILGLKEAPRPSHLADALAIALTHAFYARMGTAKPL
modifications: selenomethionine-substituted protein (SAD data)
notes: RuvC Holliday junction resolvase, Thermus thermophilus; No PDB id is printed for the apo structure; also called apo Tt-RuvC; RuvC resolvase; source: E. coli, purified (nickel column, tag cleavage, Mono-S column)
For the molecule B1, the “stoichiometry N” value in data set [2] was 2.

B2: HJ-28bb (structured_DNA)
DNA 1: GACGGCCTCGCAATCGACTATGACCGAGCACGCGAGATGT
DNA 2: ACATCTCGCGTGCTCGGTCATTCTGCAGATGCGGAGTGAA
DNA 3: TTCACTCCGCATCTGCAGATTCTGGCTGTGGCGTGTTTCT
DNA 4: AGAAACACGCCACAGCCAGAAAGTCGATTGCGAGGCCGTC
modifications: thiol tether on phosphate after nt 24 of strands 2 and 4
Turning to B2, the binding result with Tt-RuvC E70Q M108C and in the data set with Tt-RuvC E70Q T11C [3] was “binds” throughout.

B3: HJ-3bb (structured_DNA)
DNA 1: GACGGCCTCGCATTCGGCTATGACCGAGCACGCGAGATGT
DNA 2: ACATCTCGCGTGCTCGGTCATTCGGCAAGTGCGGAGTGAA
DNA 3: TTCACTCCGCACTTGCCGATTCTGGCTGTGGCGTGTTTCT
DNA 4: AGAAACACGCCACAGCCAGAAAGCCGAATGCGAGGCCGTC
modifications: thiol tether on phosphate after nt 13 of strands 1 and 3
Regarding B3, the binding result with Tt-RuvC E70Q R140C was “binds”.

B4: HJ-29bb (structured_DNA)
DNA 1: GACGGCCTCGCAATCAGCTATGACCGAGCACGCGAGATGT
DNA 2: ACATCTCGCGTGCTCGGTCATTCGTCAGATGCGGAGTGAA
DNA 3: TTCACTCCGCATCTGACGATTCTGGCTGTGGCGTGTTTCT
DNA 4: AGAAACACGCCACAGCCAGAAAGCTGATTGCGAGGCCGTC
modifications: thiol tether on phosphate after nt 25 of strands 2 and 4
Take B4: the binding result with Tt-RuvC E70Q M108C and in the data set with Tt-RuvC E70Q P40C [4] was “binds” each time.

B5: HJ-29bb-h (structured_DNA)
DNA 1: GACGGCCTCGCAATCAGCTATGACCGAGCACGCGAGATGT
DNA 2: ACATCTCGCGTGCTCGGTCATTCTGCAGATGCGGAGTGAA
DNA 3: TTCACTCCGCATCTGACGATTCTGGCTGTGGCGTGTTTCT
DNA 4: AGAAACACGCCACAGCCAGAAAGCTGATTGCGAGGCCGTC
modifications: thiol tether on phosphate after nt 25 of strand 4 only; the table lists one shared single B strand (S19) for HJ-28/29
In the case of B5, in the data set with Tt-RuvC E70Q T11C [5], the binding result is on record as “binds”.

B6: HJ-28bb-h (structured_DNA)
DNA 1: GACGGCCTCGCAATCGACTATGACCGAGCACGCGAGATGT
DNA 2: ACATCTCGCGTGCTCGGTCATTCTGCAGATGCGGAGTGAA
DNA 3: TTCACTCCGCATCTGCAGATTCTGGCTGTGGCGTGTTTCT
DNA 4: AGAAACACGCCACAGCCAGAAAGTCGATTGCGAGGCCGTC
modifications: thiol tether on phosphate after nt 24 of strand 4 only
As for B6, in the data set with Tt-RuvC E70Q P40C [6], the binding result is reported as “binds”.

B7: HJ J221/J222 (structured_DNA)
DNA 1: CAATCGGCTTTGACCTTTGGTCAATCGGCAGAT
DNA 2: ATCTGCCGATTCTGGTTTCCAGAAAGCCGATTG
For the molecule B7, the binding result with Tt-RuvC E70Q is on record as “binds”.

B8: HJ-26-h (structured_DNA)
DNA 1: CAATCGGCTATGACCTTTGGTCATTGGGCAGAT
DNA 2: ATCTGCCCATTCTGGTTTCCACAAAGCCGATTG
modifications: thiol on guanine 26 of one strand
Regarding B8, the binding result with Tt-RuvC E70Q L80C was “binds”.

B9: HJ-8-h (structured_DNA)
DNA 1: CAATCGGGTATGACCTTTGGTCATTCGGCAGAT
DNA 2: ATCTGCCGATTCTGGTTTCTAGAAACCCGATTG
modifications: thiol on guanine 8 of one strand
In the case of B9, in the data set with Tt-RuvC E70Q L80C, the binding result is on record as “binds”.

B10: HJ-25-h (structured_DNA)
DNA 1: CAATCGGCCAAGACCTTTGGTCTTGCGGCAGAT
DNA 2: ATCTGCCGCATATGGTTTCCAGATGGCCGATTG
modifications: thiol on guanine 25 of one strand
Regarding B10, the binding result in the data set with Tt-RuvC E70Q L80C (2 bp homology core) is “binds”.

B11: HJ-25 (structured_DNA)
DNA 1: CAATCGGCCAAGACCTTTGGTCTTGCGGCAGAT
DNA 2: ATCTGCCGCATATGGTTTCCAGATGGCCGATTG
modifications: thiol (cysteamine) on position 2 of guanine 25 of both strands
Take B11: the binding result with Tt-RuvC E70Q Q77C and with Tt-RuvC E70Q R76C was “binds” each time.
